In the Human Domainome abundance scans (Beltran et al. 2025):
± gives the uncertainty stated by the source.

B1: Connector enhancer of kinase suppressor of ras 2, residues 9 to 71; numbered along this chain, Q8WXI2 (parent)
chain: SKWSPSQVVDWMKGLDDCLQQYIKNFEREKISGDQLLRITHQELEDLGVSRIGHQELILEAVD

Variants of: B1
Experiment: abundance fitness (aPCA) (normalised: wild type 0, dead -1); higher = more abundant; growth selection in yeast, the domain comes from the species named
Settings: Homo sapiens
With S4M the abundance fitness was -0.273 ± 0.041.
For S4P, the abundance fitness was -0.393 ± 0.057.
S4A gave an abundance fitness of -0.835 ± 0.044.
With E60Q the abundance fitness was 0.006 ± 0.046.
Variant G14Q has an abundance fitness of -0.196 ± 0.047.
G14S gave an abundance fitness of -0.005 ± 0.027.
With G14E the abundance fitness was -0.225 ± 0.034.
For R38M, the abundance fitness was -0.307 ± 0.05.
R38F showed an abundance fitness of -0.416 ± 0.049.
Work on D46E yielded an abundance fitness of -0.013 ± 0.032.
Work on D46C yielded an abundance fitness of -0.188 ± 0.044.
For D46W, the abundance fitness was -0.192 ± 0.034.
D46Q gave an abundance fitness of -0.032 ± 0.048.
With H41V the abundance fitness was -0.06 ± 0.03.
Work on H41K yielded an abundance fitness of 0.029 ± 0.034.
Work on H41P yielded an abundance fitness of -0.002 ± 0.033.
H41C gave an abundance fitness of -0.157 ± 0.054.
H41L showed an abundance fitness of -0.234 ± 0.027.
Variant H41M has an abundance fitness of -0.125 ± 0.047.
Variant H41S has an abundance fitness of -0.007 ± 0.027.
In the case of H41I, the abundance fitness is reported as -0.184 ± 0.051.
C18F showed an abundance fitness of -0.823 ± 0.077.
Variant C18N has an abundance fitness of -0.132 ± 0.045.
C18G showed an abundance fitness of -0.182 ± 0.026.
Variant C18Y has an abundance fitness of -0.877 ± 0.061.
With C18P the abundance fitness was -0.239 ± 0.033.
With C18T the abundance fitness was -0.221 ± 0.04.
In the case of W3S, the abundance fitness is reported as -0.504 ± 0.072.
In the case of W3C, the abundance fitness is reported as -0.713 ± 0.12.
W3E gave an abundance fitness of -0.725 ± 0.15.
Variant W3K has an abundance fitness of -0.409 ± 0.064.
In the case of W3T, the abundance fitness is reported as -1.05 ± 0.26.
Work on E43Y yielded an abundance fitness of -0.472 ± 0.044.
E43L gave an abundance fitness of -0.41 ± 0.03.
Work on E43C yielded an abundance fitness of -0.332 ± 0.036.
E43K gave an abundance fitness of -0.003 ± 0.055.
Variant P5V has an abundance fitness of -0.047 ± 0.025.
Variant P5S has an abundance fitness of -0.007 ± 0.025.
P5A showed an abundance fitness of -0.055 ± 0.04.
In the case of P5K, the abundance fitness is reported as -0.514 ± 0.048.
For Q42M, the abundance fitness was -0.319 ± 0.05.
For Q42K, the abundance fitness was 0.002 ± 0.051.
Q42S gave an abundance fitness of -0.128 ± 0.021.
With Q42D the abundance fitness was -0.348 ± 0.046.
Q42P showed an abundance fitness of -0.254 ± 0.035.
In the case of Q42Y, the abundance fitness is reported as -0.848 ± 0.1.
For Q42L, the abundance fitness was -0.378 ± 0.025.
With D34V the abundance fitness was -0.159 ± 0.029.
Variant D34S has an abundance fitness of -0.06 ± 0.027.
D34N gave an abundance fitness of -0.087 ± 0.039.
Variant D34F has an abundance fitness of -0.281 ± 0.056.
D34I showed an abundance fitness of -0.213 ± 0.055.
With D34Q the abundance fitness was -0.031 ± 0.052.
For L36Q, the abundance fitness was -0.898 ± 0.087.
L36E gave an abundance fitness of -0.769 ± 0.039.
L36F showed an abundance fitness of -0.715 ± 0.091.
With L36I the abundance fitness was -0.325 ± 0.041.
For L37M, the abundance fitness was 0.012 ± 0.049.
With L37K the abundance fitness was -0.132 ± 0.047.
With L37Y the abundance fitness was -0.28 ± 0.043.
For L37S, the abundance fitness was -0.072 ± 0.027.
In the case of L37E, the abundance fitness is reported as -0.193 ± 0.031.
L37Q gave an abundance fitness of -0.151 ± 0.038.
L37A gave an abundance fitness of -0.073 ± 0.023.
Work on L37T yielded an abundance fitness of -0.155 ± 0.037.
In the case of W11D, the abundance fitness is reported as -0.65 ± 0.055.
W11I showed an abundance fitness of -1 ± 0.11.
For W11H, the abundance fitness was -0.738 ± 0.049.
With W11F the abundance fitness was -0.333 ± 0.048.
With W11Q the abundance fitness was -0.681 ± 0.054.
W11S showed an abundance fitness of -0.782 ± 0.036.
In the case of W11V, the abundance fitness is reported as -0.749 ± 0.038.
For D63A, the abundance fitness was -0.001 ± 0.045.
D63I showed an abundance fitness of -0.274 ± 0.063.
D63R showed an abundance fitness of 0.108 ± 0.046.
For D63Y, the abundance fitness was -0.096 ± 0.051.
D63E gave an abundance fitness of -0.012 ± 0.045.
In the case of D63K, the abundance fitness is reported as -0.059 ± 0.087.
S6P showed an abundance fitness of -0.328 ± 0.038.
S6I gave an abundance fitness of -0.17 ± 0.04.
In the case of S6D, the abundance fitness is reported as 0.026 ± 0.044.
In the case of S32G, the abundance fitness is reported as -0.074 ± 0.022.
For S32M, the abundance fitness was -0.394 ± 0.042.
